Test results taken from patent EP1132405A1 (Takeda Chemical Industries, Ltd., dated 2001).
Ends that are not written are not given here.

Target: rat cerebellum-derived G protein-coupled receptor protein rOT7T022L (rat, UniProt Q9EP86 1-432)
Assay: cell-based or functional assay

Sequence of rat cerebellum-derived G protein-coupled receptor protein rOT7T022L (Q9EP86 whole entry, form in doubt): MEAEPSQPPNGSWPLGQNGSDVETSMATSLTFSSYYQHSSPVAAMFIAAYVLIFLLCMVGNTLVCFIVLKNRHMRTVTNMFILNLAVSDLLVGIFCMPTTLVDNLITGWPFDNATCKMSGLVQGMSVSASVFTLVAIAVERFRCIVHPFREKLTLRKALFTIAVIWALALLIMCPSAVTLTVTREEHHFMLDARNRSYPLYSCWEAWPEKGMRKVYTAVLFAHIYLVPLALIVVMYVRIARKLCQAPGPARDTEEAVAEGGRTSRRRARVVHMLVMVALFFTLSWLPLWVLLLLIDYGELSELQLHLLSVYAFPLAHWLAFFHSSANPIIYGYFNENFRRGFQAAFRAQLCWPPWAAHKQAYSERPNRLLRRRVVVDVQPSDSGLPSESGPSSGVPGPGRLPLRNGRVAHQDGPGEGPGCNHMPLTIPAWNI

IC50 of cAMP production suppression (forskolin-stimulated, cAMP EIA): 0.5 nM
Binder: MPHSFANLPLRF-NH2 [peptide MPHSFANLPLRFamide (Met-Pro-His-Ser-Phe-Ala-Asn-Leu-Pro-Leu-Arg-Phe-NH2)]
